The assay has as its target T1, cell surface CD6 on human T cells (CD4 and CD8 T cells of PBMCs / whole blood) (human, UniProt P30203 18-668).
T1 construct: whole, on cells
T1 sequence (looked up): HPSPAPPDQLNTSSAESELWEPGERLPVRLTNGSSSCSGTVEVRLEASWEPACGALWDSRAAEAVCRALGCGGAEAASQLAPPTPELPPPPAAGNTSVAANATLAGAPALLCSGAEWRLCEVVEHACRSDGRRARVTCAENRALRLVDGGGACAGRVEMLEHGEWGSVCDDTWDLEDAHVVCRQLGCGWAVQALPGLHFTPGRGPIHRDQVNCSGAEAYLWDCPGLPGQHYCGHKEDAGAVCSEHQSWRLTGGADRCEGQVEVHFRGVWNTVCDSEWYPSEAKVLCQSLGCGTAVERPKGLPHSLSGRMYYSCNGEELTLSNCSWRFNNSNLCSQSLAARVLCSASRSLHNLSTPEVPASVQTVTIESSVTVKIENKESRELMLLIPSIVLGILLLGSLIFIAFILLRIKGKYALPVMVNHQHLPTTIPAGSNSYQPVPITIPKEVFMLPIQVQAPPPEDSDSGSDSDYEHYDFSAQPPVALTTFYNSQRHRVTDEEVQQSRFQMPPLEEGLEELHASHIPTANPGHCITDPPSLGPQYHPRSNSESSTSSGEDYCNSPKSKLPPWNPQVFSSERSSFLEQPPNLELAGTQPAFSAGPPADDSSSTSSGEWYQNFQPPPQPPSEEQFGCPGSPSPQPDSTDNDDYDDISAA
Description: flow cytometry, receptor occupancy on CD4 and CD8 T cells.

B1: itolizumab (antibody, human IgG1, kappa, V domains shown)
VH: EVQLVESGGGLVKPGGSLKLSCAASGFKFSRYAMSWVRQAPGKRLEWVATISSGGSYIYYPDSVKGRFTISRDNVKNTLYLQMSSLRSEDTAMYYCARRDYDLDYFDSWGQGTLVTVSS
VL: DIQMTQSPSSLSASVGDRVTITCKASRDIRSYLTWYQQKPGKAPKTLIYYATSLADGVPSRFSGSGSGQDYSLTISSLESDDTATYYCLQHGESPFTLGSGTKLEIKR
notes: Humanized anti-CD6 monoclonal antibody; also called EQ001; ALZUMAB
Consider B1, for which the binding result is “binds”.

The values are drawn from patent US20240053360A1 (EQUILLIUM, published 2024).
